Test results published in IntAct's records for PubMed 16977320.

B1: Ephrin type-A receptor 2 (Mus musculus), Q03145 (parent)
chain: MELRAVGFCLALLWGCALAAAAAQGKEVVLLDFAAMKGELGWLTHPYGKGWDLMQNIMDDMPIYMYSVCNVVSGDQDNWLRTNWVYREEAERIFIELKFTVRDCNSFPGGASSCKETFNLYYAESDVDYGTNFQKRQFTKIDTIAPDEITVSSDFEARNVKLNVEERMVGPLTRKGFYLAFQDIGACVALLSVRVYYKKCPEMLQSLARFPETIAVAVSDTQPLATVAGTCVDHAVVPYGGEGPLMHCTVDGEWLVPIGQCLCQEGYEKVEDACRACSPGFFKSEASESPCLECPEHTLPSTEGATSCQCEEGYFRAPEDPLSMSCTRPPSAPNYLTAIGMGAKVELRWTAPKDTGGRQDIVYSVTCEQCWPESGECGPCEASVRYSEPPHALTRTSVTVSDLEPHMNYTFAVEARNGVSGLVTSRSFRTASVSINQTEPPKVRLEDRSTTSLSVTWSIPVSQQSRVWKYEVTYRKKGDANSYNVRRTEGFSVTLDDLAPDTTYLVQVQALTQEGQGAGSKVHEFQTLSTEGSANMAVIGGVAVGVVLLLVLAGVGLFIHRRRRNLRARQSSEDVRFSKSEQLKPLKTYVDPHTYEDPNQAVLKFTTEIHPSCVARQKVIGAGEFGEVYKGTLKASSGKKEIPVAIKTLKAGYTEKQRVDFLSEASIMGQFSHHNIIRLEGVVSKYKPMMIITEYMENGALDKFLREKDGEFSVLQLVGMLRGIASGMKYLANMNYVHRDLAARNILVNSNLVCKVSDFGLSRVLEDDPEATYTTSGGKIPIRWTAPEAISYRKFTSASDVWSYGIVMWEVMTYGERPYWELSNHEVMKAINDGFRLPTPMDCPSAIYQLMMQCWQQERSRRPKFADIVSILDKLIRAPDSLKTLADFDPRVSIRLPSTSGSEGVPFRTVSEWLESIKMQQYTEHFMVAGYTAIEKVVQMSNEDIKRIGVRLPGHQKRIAYSLLGLKDQVNTVGIPI

Variants of: B1
Conditions: with epha4_mouse Epha4, Q03137
Chain of epha4_mouse Epha4, Q03137 (Q03137 whole entry): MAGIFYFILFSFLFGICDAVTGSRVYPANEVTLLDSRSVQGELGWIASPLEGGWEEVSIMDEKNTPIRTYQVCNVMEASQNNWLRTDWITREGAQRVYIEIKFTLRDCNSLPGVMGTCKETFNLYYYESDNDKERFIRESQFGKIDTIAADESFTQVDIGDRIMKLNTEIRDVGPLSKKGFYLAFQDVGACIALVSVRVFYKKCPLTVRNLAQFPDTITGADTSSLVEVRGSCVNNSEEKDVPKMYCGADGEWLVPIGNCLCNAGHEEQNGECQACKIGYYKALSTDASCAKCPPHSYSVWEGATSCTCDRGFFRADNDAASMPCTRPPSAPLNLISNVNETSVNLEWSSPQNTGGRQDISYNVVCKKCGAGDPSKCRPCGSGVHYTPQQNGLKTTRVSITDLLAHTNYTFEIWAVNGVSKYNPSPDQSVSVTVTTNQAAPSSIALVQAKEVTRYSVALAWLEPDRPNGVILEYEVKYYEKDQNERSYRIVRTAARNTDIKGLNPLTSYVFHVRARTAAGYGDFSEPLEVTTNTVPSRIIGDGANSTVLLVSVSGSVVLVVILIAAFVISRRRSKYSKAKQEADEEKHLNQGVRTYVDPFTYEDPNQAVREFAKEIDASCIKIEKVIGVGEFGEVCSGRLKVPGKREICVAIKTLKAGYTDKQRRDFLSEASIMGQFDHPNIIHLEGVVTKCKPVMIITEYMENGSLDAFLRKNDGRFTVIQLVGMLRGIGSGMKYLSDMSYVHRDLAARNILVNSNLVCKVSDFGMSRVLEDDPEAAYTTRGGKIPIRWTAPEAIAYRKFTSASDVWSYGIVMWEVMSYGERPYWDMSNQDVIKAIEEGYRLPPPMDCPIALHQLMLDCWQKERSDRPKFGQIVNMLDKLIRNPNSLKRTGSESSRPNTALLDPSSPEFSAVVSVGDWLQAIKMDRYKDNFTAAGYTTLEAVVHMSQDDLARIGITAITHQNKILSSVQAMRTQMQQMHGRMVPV

Row | effect of a mutation on the interaction | Variant
1 | disrupting interaction | Y595F

Variants of: B1
Conditions: with epha4_mouse Epha4, Q03137
Remark: another data set of the same source

Row | effect of a mutation on the interaction | Variant
2 | disrupting interaction | Y589F
